Measurements taken from article PMC10082071.

Experiments:
[1] = target: Lysyl oxidase-like 2 (LOXL2), full-length, endogenous in human aortic smooth muscle cells (human (endogenous in HASMC)) (UniProt Q9Y4K0); assay: proximity ligation; Duolink In Situ Red mouse/rabbit kit on HASMC on coverslips, fixed but not permeabilised; cells untreated, with FXa, or with FXa + rivaroxaban for 24 h; signal as mean gray value, % of average of controls
[2] = target: FXa-processed LOXL2, endogenous in human aortic smooth muscle cells treated with FXa (human (endogenous in HASMC)) (UniProt Q9Y4K0); assay: as above

increase of PLA signal with rivaroxaban (full-length LOXL2 accumulated) [1]: 80 % (increase)
decrease of PLA signal with FXa against controls [2]: 50 % (decrease)
Substance: Type IV collagen, endogenous in the matrix of human aortic smooth muscle cells (complex)
